# Experimental data published in patent USRE49847 (dated 2024).
# T1: soluble CD22-Fc (R&D Systems) (UniProt P20273 20-687)
# T1 construct: Bought reagent used to stain CD22 CARs; not shown: Fc part; detected with anti-human IgG Fc-gamma secondary
# T1 sequence (looked up): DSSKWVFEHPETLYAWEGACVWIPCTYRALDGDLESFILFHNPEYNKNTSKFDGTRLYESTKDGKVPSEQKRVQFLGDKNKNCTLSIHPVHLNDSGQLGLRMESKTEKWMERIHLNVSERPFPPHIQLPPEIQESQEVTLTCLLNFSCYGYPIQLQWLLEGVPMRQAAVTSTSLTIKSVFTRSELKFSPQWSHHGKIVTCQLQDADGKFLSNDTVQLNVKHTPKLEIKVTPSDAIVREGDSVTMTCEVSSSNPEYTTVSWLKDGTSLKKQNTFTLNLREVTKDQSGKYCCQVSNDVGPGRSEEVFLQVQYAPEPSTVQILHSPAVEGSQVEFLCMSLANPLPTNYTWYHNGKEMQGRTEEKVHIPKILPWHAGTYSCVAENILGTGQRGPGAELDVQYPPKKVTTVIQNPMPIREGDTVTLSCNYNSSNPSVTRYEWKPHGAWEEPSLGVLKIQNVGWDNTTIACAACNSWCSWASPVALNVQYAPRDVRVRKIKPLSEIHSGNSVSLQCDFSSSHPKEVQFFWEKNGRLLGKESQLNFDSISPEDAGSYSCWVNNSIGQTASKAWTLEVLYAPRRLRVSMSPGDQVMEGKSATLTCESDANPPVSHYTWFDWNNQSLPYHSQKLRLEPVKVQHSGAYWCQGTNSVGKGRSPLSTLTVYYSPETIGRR
# Target: T1, soluble CD22-Fc (R&D Systems)
# Assay: flow cytometry, soluble CD22-Fc plus anti-human Fc-PE on CAR-transduced primary T cells (FIG. 4)
row,MFI,Binder
1,> 20000,"CD22-62 CAR (other, CAR on primary human T cells; not shown: hinge, transmembrane, 4-1BB and CD3zeta parts of the CAR) EVQLQQSGPGLVKPSQTLSLTCAISGDSVLSNSDTWNWIRQSPSRGLEWLGRTYHRSTWYDDYASSVRGRVSINVDTSKNQYSLQLNAVTPEDTGVYYCARDRLQDGNSWSDAFDVWGQGTMVTVSSGGGGSGGGGSGGGGSQSALTQPASVSGSPGQSITISCTGTSSDVGGYNYVSWYQQHPGKAPKLMIYDVSNRPSGVSNRFSGSKSGNTASLTISGLQAEDEADYYCSSYTSSSTLYVFGTGTKVTVL"
2,> 20000,"CD22-59 CAR (other, CAR on primary human T cells; not shown: hinge, transmembrane, 4-1BB and CD3zeta parts of the CAR) EVQLQQSGPGLVKPSQTLSLTCAISGDSVLSNSDTWNWIRQSPSRGLEWLGRTYHRSTWYDDYASSVRGRVSINVDTSKNQYSLQLNAVTPEDTGVYYCARDRLQDGNSWSDAFDVWGQGTMVTVSSGGGGSGGGGSGGGGSQSALTQPASVSGSPGQSITISCTGSSSDIGGFNYVSWYQQHAGEAPKLMIYEVTNRPSGVSDRFSGSKSDNTASLTISGLQAEDEADYYCSSYASGSPLYVFGTGTKVTVL"
3,> 20000,"CD22-60 CAR (other, CAR on primary human T cells; not shown: hinge, transmembrane, 4-1BB and CD3zeta parts of the CAR) EVQLQQSGPGLVKPSQTLSLTCAISGDSVLSNSDTWNWIRQSPSRGLEWLGRTYHRSTWYDDYASSVRGRVSINVDTSKNQYSLQLNAVTPEDTGVYYCARDRLQDGNSWSDAFDVWGQGTMVTVSSGGGGSGGGGSGSGGSQSALTQPASVSGSPGQSITFSCTGTSSDIGGYNYVSWYQQHPGKAPKLMIYEVSNRPSGVSNRFSGTKSGNTASLTISGLQAEDEADYYCSSYTSSSTLYVFGTGTKLTVL"

# Target: T1, soluble CD22-Fc (R&D Systems)
# Assay: FACS surface staining of transduced JNL cells with CD22-Fc
row,binding result,Binder
1,binds,"tandem CD22/CD19 CAR construct 188 (other, Distal anti-CD22 scFv L/H short linker, GGGGS, proximal anti-CD19 scFv; leader 1-21 left out; also called CG#c188; c188) QSALTQPASASGSPGQSVTISCTGTSSDVGGYNYVSWYQQHPGKAPKLMIYDVSNRPSGVSNRFSGSKSGNTASLTISGLQAEDEADYYCSSYTSSSTLYVFGTGTQLTVLGGGGSEVQLQQSGPGLVKPSQTLSLTCAISGDSMLSNSDTWNWIRQSPSRGLEWLGRTYHRSTWYDDYASSVRGRVSINVDTSKNQYSLQLNAVTPEDTGVYYCARVRLQDGNSWSDAFDVWGQGTMVTVSSGGGGSEIVMTQSPATLSLSPGERATLSCRASQDISKYLNWYQQKPGQAPRLLIYHTSRLHSGIPARFSGSGSGTDYTLTISSLQPEDFAVYFCQQGNTLPYTFGQGTKLEIKGGGGSGGGGSGGGGSQVQLQESGPGLVKPSETLSLTCTVSGVSLPDYGVSWIRQPPGKGLEWIGVIWGSETTYYQSSLKSRVTISKDNSKNQVSLKLSSVTAADTAVYYCAKHYYYGGSYAMDYWGQGTLVTVSSTTTPAPRPPTPAPTIASQPLSLRPEACRPAAGGAVHTRGLDFACDIYIWAPLAGTCGVLLLSLVITLYCKRGRKKLLYIFKQPFMRPVQTTQEEDGCSCRFPEEEEGGCELRVKFSRSADAPAYQQGQNQLYNELNLGRREEYDVLDKRRGRDPEMGGKPRRKNPQEGLYNELQKDKMAEAYSEIGMKGERRRGKGHDGLYQGLSTATKDTYDALHMQALPPR"
2,binds,"control anti-CD22 CAR CG#c170 (other, the tie is by that description, not by a printed label; not shown: hinge, transmembrane, 4-1BB and CD3zeta parts of the CAR) EVQLQQSGPGLVKPSQTLSLTCAISGDSMLSNSDTWNWIRQSPSRGLEWLGRTYHRSTWYDDYASSVRGRVSINVDTSKNQYSLQLNAVTPEDTGVYYCARVRLQDGNSWSDAFDVWGQGTMVTVSSGGGGSQSALTQPASASGSPGQSVTISCTGTSSDVGGYNYVSWYQQHPGKAPKLMIYDVSNRPSGVSNRFSGSKSGNTASLTISGLQAEDEADYYCSSYTSSSTLYVFGTGTQLTVL"
3,binds,"tandem CD22/CD19 CAR construct 185 (other, Distal anti-CD22 scFv L/H, LAEAAAK, proximal anti-CD19 scFv; leader 1-21 left out; also called CG#c185; c185) QSALTQPASASGSPGQSVTISCTGTSSDVGGYNYVSWYQQHPGKAPKLMIYDVSNRPSGVSNRFSGSKSGNTASLTISGLQAEDEADYYCSSYTSSSTLYVFGTGTQLTVLGGGGSGGGGSGGGGSEVQLQQSGPGLVKPSQTLSLTCAISGDSMLSNSDTWNWIRQSPSRGLEWLGRTYHRSTWYDDYASSVRGRVSINVDTSKNQYSLQLNAVTPEDTGVYYCARVRLQDGNSWSDAFDVWGQGTMVTVSSLAEAAAKEIVMTQSPATLSLSPGERATLSCRASQDISKYLNWYQQKPGQAPRLLIYHTSRLHSGIPARFSGSGSGTDYTLTISSLQPEDFAVYFCQQGNTLPYTFGQGTKLEIKGGGGSGGGGSGGGGSQVQLQESGPGLVKPSETLSLTCTVSGVSLPDYGVSWIRQPPGKGLEWIGVIWGSETTYYQSSLKSRVTISKDNSKNQVSLKLSSVTAADTAVYYCAKHYYYGGSYAMDYWGQGTLVTVSSTTTPAPRPPTPAPTIASQPLSLRPEACRPAAGGAVHTRGLDFACDIYIWAPLAGTCGVLLLSLVITLYCKRGRKKLLYIFKQPFMRPVQTTQEEDGCSCRFPEEEEGGCELRVKFSRSADAPAYQQGQNQLYNELNLGRREEYDVLDKRRGRDPEMGGKPRRKNPQEGLYNELQKDKMAEAYSEIGMKGERRRGKGHDGLYQGLSTATKDTYDALHMQALPPR"
4,binds,"control anti-CD22 CAR CG#c175 (other, not shown: hinge, transmembrane, 4-1BB and CD3zeta parts of the CAR) QSALTQPASASGSPGQSVTISCTGTSSDVGGYNYVSWYQQHPGKAPKLMIYDVSNRPSGVSNRFSGSKSGNTASLTISGLQAEDEADYYCSSYTSSSTLYVFGTGTQLTVLGGGGSGGGGSGGGGSEVQLQQSGPGLVKPSQTLSLTCAISGDSMLSNSDTWNWIRQSPSRGLEWLGRTYHRSTWYDDYASSVRGRVSINVDTSKNQYSLQLNAVTPEDTGVYYCARVRLQDGNSWSDAFDVWGQGTMVTVSS"
5,binds,"tandem CD22/CD19 CAR construct 186 (other, Distal anti-CD22 scFv L/H, GGGGS, proximal anti-CD19 scFv; leader 1-21 left out; also called CG#c186; c186) QSALTQPASASGSPGQSVTISCTGTSSDVGGYNYVSWYQQHPGKAPKLMIYDVSNRPSGVSNRFSGSKSGNTASLTISGLQAEDEADYYCSSYTSSSTLYVFGTGTQLTVLGGGGSGGGGSGGGGSEVQLQQSGPGLVKPSQTLSLTCAISGDSMLSNSDTWNWIRQSPSRGLEWLGRTYHRSTWYDDYASSVRGRVSINVDTSKNQYSLQLNAVTPEDTGVYYCARVRLQDGNSWSDAFDVWGQGTMVTVSSGGGGSEIVMTQSPATLSLSPGERATLSCRASQDISKYLNWYQQKPGQAPRLLIYHTSRLHSGIPARFSGSGSGTDYTLTISSLQPEDFAVYFCQQGNTLPYTFGQGTKLEIKGGGGSGGGGSGGGGSQVQLQESGPGLVKPSETLSLTCTVSGVSLPDYGVSWIRQPPGKGLEWIGVIWGSETTYYQSSLKSRVTISKDNSKNQVSLKLSSVTAADTAVYYCAKHYYYGGSYAMDYWGQGTLVTVSSTTTPAPRPPTPAPTIASQPLSLRPEACRPAAGGAVHTRGLDFACDIYIWAPLAGTCGVLLLSLVITLYCKRGRKKLLYIFKQPFMRPVQTTQEEDGCSCRFPEEEEGGCELRVKFSRSADAPAYQQGQNQLYNELNLGRREEYDVLDKRRGRDPEMGGKPRRKNPQEGLYNELQKDKMAEAYSEIGMKGERRRGKGHDGLYQGLSTATKDTYDALHMQALPPR"
6,binds,"tandem CD22/CD19 CAR construct 184 (other, Distal anti-CD22 scFv H/L short linker, GGGGS, proximal anti-CD19 scFv; leader 1-21 left out; also called CG#c184; c184) EVQLQQSGPGLVKPSQTLSLTCAISGDSMLSNSDTWNWIRQSPSRGLEWLGRTYHRSTWYDDYASSVRGRVSINVDTSKNQYSLQLNAVTPEDTGVYYCARVRLQDGNSWSDAFDVWGQGTMVTVSSGGGGSQSALTQPASASGSPGQSVTISCTGTSSDVGGYNYVSWYQQHPGKAPKLMIYDVSNRPSGVSNRFSGSKSGNTASLTISGLQAEDEADYYCSSYTSSSTLYVFGTGTQLTVLGGGGSEIVMTQSPATLSLSPGERATLSCRASQDISKYLNWYQQKPGQAPRLLIYHTSRLHSGIPARFSGSGSGTDYTLTISSLQPEDFAVYFCQQGNTLPYTFGQGTKLEIKGGGGSGGGGSGGGGSQVQLQESGPGLVKPSETLSLTCTVSGVSLPDYGVSWIRQPPGKGLEWIGVIWGSETTYYQSSLKSRVTISKDNSKNQVSLKLSSVTAADTAVYYCAKHYYYGGSYAMDYWGQGTLVTVSSTTTPAPRPPTPAPTIASQPLSLRPEACRPAAGGAVHTRGLDFACDIYIWAPLAGTCGVLLLSLVITLYCKRGRKKLLYIFKQPFMRPVQTTQEEDGCSCRFPEEEEGGCELRVKFSRSADAPAYQQGQNQLYNELNLGRREEYDVLDKRRGRDPEMGGKPRRKNPQEGLYNELQKDKMAEAYSEIGMKGERRRGKGHDGLYQGLSTATKDTYDALHMQALPPR"
7,binds,"control anti-CD22 CAR CG#c176 (other, not shown: hinge, transmembrane, 4-1BB and CD3zeta parts of the CAR) QSALTQPASASGSPGQSVTISCTGTSSDVGGYNYVSWYQQHPGKAPKLMIYDVSNRPSGVSNRFSGSKSGNTASLTISGLQAEDEADYYCSSYTSSSTLYVFGTGTQLTVLGGGGSEVQLQQSGPGLVKPSQTLSLTCAISGDSMLSNSDTWNWIRQSPSRGLEWLGRTYHRSTWYDDYASSVRGRVSINVDTSKNQYSLQLNAVTPEDTGVYYCARVRLQDGNSWSDAFDVWGQGTMVTVSS"
8,binds,"tandem CD22/CD19 CAR construct 187 (other, Distal anti-CD22 scFv L/H short linker, LAEAAAK, proximal anti-CD19 scFv; leader 1-21 left out; also called CG#c187; c187) QSALTQPASASGSPGQSVTISCTGTSSDVGGYNYVSWYQQHPGKAPKLMIYDVSNRPSGVSNRFSGSKSGNTASLTISGLQAEDEADYYCSSYTSSSTLYVFGTGTQLTVLGGGGSEVQLQQSGPGLVKPSQTLSLTCAISGDSMLSNSDTWNWIRQSPSRGLEWLGRTYHRSTWYDDYASSVRGRVSINVDTSKNQYSLQLNAVTPEDTGVYYCARVRLQDGNSWSDAFDVWGQGTMVTVSSLAEAAAKEIVMTQSPATLSLSPGERATLSCRASQDISKYLNWYQQKPGQAPRLLIYHTSRLHSGIPARFSGSGSGTDYTLTISSLQPEDFAVYFCQQGNTLPYTFGQGTKLEIKGGGGSGGGGSGGGGSQVQLQESGPGLVKPSETLSLTCTVSGVSLPDYGVSWIRQPPGKGLEWIGVIWGSETTYYQSSLKSRVTISKDNSKNQVSLKLSSVTAADTAVYYCAKHYYYGGSYAMDYWGQGTLVTVSSTTTPAPRPPTPAPTIASQPLSLRPEACRPAAGGAVHTRGLDFACDIYIWAPLAGTCGVLLLSLVITLYCKRGRKKLLYIFKQPFMRPVQTTQEEDGCSCRFPEEEEGGCELRVKFSRSADAPAYQQGQNQLYNELNLGRREEYDVLDKRRGRDPEMGGKPRRKNPQEGLYNELQKDKMAEAYSEIGMKGERRRGKGHDGLYQGLSTATKDTYDALHMQALPPR"
